This note sets out measurements from patent US20160083428A1 (CARMEL HAIFA UNIVERSITY ECONOMIC, published 2016).

Ends that are not written are not given here. * marks the point of attachment. Biotin = O=C1N[C@H]2[C@H](CS[C@H]2CCCCC(=O)*)N1

In the assay the target is eukaryotic elongation factor 2 (eEF2) (rat, UniProt P05197 2-858). Kind of assay: pull-down from rat brain homogenate with streptavidin agarose, Western blot. Background: In western blotting, separated proteins are transferred to a membrane and probed.

B1: peptide 1 (Ac-RRQRYTPFPLGFE-Lys(Biotin)-NH2-OH), peptide derived from the G-H loop of ephrinA4 (peptide)
peptide: Ac-RRQRYTPFPLGFEK(Biotin)
modifications: not fully specified; printed as Ac-RRQRYTPFPLGFE-Lys(Biotin)-NH2-OH
notes: also called pep-ephrinA4; ephrinA4 peptide
For the molecule B1, the binding result is recorded as “no binding (tested: 20 micrograms)”.
